Data reported in patent US20230083670A1 (published 2023).

Biological target: PD-L1 on CHO cells expressing human PD-L1 (CHO-PDL1) (human, UniProt Q9NZQ7 19-290)
Experiment: flow cytometry cell binding; CHO-PD-L1 cells

PD-L1 on CHO cells expressing human PD-L1 (CHO-PDL1), sequence (Q9NZQ7 19-290): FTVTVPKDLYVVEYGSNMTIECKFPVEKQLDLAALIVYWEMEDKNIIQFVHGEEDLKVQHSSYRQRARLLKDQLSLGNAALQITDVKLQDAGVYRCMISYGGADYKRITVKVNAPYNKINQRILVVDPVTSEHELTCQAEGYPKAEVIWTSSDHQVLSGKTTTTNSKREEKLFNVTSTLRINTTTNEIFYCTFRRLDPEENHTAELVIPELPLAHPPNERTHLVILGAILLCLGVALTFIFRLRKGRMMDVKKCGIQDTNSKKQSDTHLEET

B1: IMM2515 (antibody, V domains shown)
VH: QVQLVQSGAEVKKPGASVKVSCKASGYTFTSNWMHWVRQAPGQGLEWMGMIHPNSGSSNYNEKFKSRVTMTRDTSTSTVYMELSSLRSEDTAVYYCARSYYGSSPYYFDYWGQGTLVTVSS
VL: DIQMTQSPSSLSASVGDRVTITCRASQDIINYLNWYQQKPGKAPKLLIYYTSRLHSGVPSRFSGSGSGTDFTFTISSLQPEDIATYYCQQGDTLPWTFGQGTKVEIKR
In the case of B1, the EC50 is reported as 0.0511 nM.
